{"source": "paper PMC5387316", "about": "“Distinctive molecular and biochemical characteristics of a glycoside hydrolase family 20 β-N-acetylglucosaminidase and salt tolerance” (BMC Biotechnology, 2017)", "key": {"[1]": {"biological_target": "T1, rHJ5Nag (Microbacterium sp. HJ5, UniProt A0A1W6AQA7)", "T1 construct": "pEASY-E2 in E. coli BL21 (DE3), purified on Ni-NTA", "T1 sequence (A0A1W6AQA7 21-535)": "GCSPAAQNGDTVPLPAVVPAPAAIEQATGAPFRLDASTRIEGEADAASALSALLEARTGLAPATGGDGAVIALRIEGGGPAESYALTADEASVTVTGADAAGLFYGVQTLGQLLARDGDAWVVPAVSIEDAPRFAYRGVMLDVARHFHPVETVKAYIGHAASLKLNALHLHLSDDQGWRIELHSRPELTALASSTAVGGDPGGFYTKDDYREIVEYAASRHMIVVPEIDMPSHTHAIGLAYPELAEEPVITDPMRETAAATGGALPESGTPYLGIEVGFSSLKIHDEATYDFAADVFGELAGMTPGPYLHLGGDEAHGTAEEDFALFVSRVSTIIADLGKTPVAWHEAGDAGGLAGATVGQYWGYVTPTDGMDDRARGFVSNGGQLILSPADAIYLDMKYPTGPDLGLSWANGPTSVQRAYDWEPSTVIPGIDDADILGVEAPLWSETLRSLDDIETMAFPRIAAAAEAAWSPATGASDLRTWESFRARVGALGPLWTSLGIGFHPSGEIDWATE", "assay": "pNP release assay, nonlinear mixed-model inhibition fit", "assay_type": "biochemical", "conditions": "0.1-1.2 mM pNPGlcNAc; pH 6.0; 45 °C; mixed competitive and noncompetitive inhibition (alpha 3.412); product inhibitor at 5.0 and 10.0 mM"}, "[2]": {"substrate": "CC(=O)N[C@H]1[C@H](Oc2ccc([N+](=O)[O-])cc2)O[C@H](CO)[C@@H](O)[C@@H]1O", "assay": "pNP release assay, nonlinear Michaelis-Menten fit", "assay_type": "biochemical, Microbacterium sp. HJ5", "conditions": "pH 6.0, 45 °C, McIlvaine buffer, without added GlcNAc"}}, "data": [{"molecule": "CC(=O)N[C@H]1C(O)O[C@H](CO)[C@@H](O)[C@@H]1O", "note": "(stereo partly drawn) [N-acetylglucosamine]", "values": [{"measurement": "Ki", "setting": "[1]", "value": 14.6, "unit": "mM"}]}, {"molecule": "rHJ5Nag (Microbacterium sp. HJ5) (protein, pEASY-E2 in E. coli BL21 (DE3), purified on Ni-NTA) GCSPAAQNGDTVPLPAVVPAPAAIEQATGAPFRLDASTRIEGEADAASALSALLEARTGLAPATGGDGAVIALRIEGGGPAESYALTADEASVTVTGADAAGLFYGVQTLGQLLARDGDAWVVPAVSIEDAPRFAYRGVMLDVARHFHPVETVKAYIGHAASLKLNALHLHLSDDQGWRIELHSRPELTALASSTAVGGDPGGFYTKDDYREIVEYAASRHMIVVPEIDMPSHTHAIGLAYPELAEEPVITDPMRETAAATGGALPESGTPYLGIEVGFSSLKIHDEATYDFAADVFGELAGMTPGPYLHLGGDEAHGTAEEDFALFVSRVSTIIADLGKTPVAWHEAGDAGGLAGATVGQYWGYVTPTDGMDDRARGFVSNGGQLILSPADAIYLDMKYPTGPDLGLSWANGPTSVQRAYDWEPSTVIPGIDDADILGVEAPLWSETLRSLDDIETMAFPRIAAAAEAAWSPATGASDLRTWESFRARVGALGPLWTSLGIGFHPSGEIDWATE", "values": [{"measurement": "Km", "setting": "[2]", "value": "520 ± 50", "unit": "µM"}, {"measurement": "kcat", "setting": "[2]", "value": "2886 ± 116", "unit": "s⁻¹"}]}]}
